{
  "source": "paper doi:10.1101/2020.09.29.317909",
  "target": "MtMce4A_(39-140) (Mycobacterium tuberculosis)",
  "experiment": "SEC-MALS",
  "data": [
    {"substance": "MtMce4A_(39-140) (domain or fragment)", "values": [
      {"measurement": "stoichiometry N", "value": 2}
    ]}
  ]
}
